The results in this text go back to the supplement of paper PMC10567573.

This data set can be described thus: protein stability index of a GFP-peptide fusion (GPS, HEK-293T) (PSI 1-6); higher = more stable.
Where [1] appears, read: treatment: DMSO, c terminus: a fixed tail appended.
Where [2] appears, read: treatment: MLN4924 1 uM, 8 h, c terminus: a fixed tail appended.
Setting [3] is: treatment: DMSO, c terminus: native.
Where [4] appears, read: treatment: MLN4924 1 uM, 8 h, c terminus: native.

± gives the standard deviation.
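Note: 24-mer peptide tiles fused after GFP, lentivirally expressed, FACS-sorted into six equal bins by GFP/DsRed ratio, decoded by Illumina sequencing, PSI is the read-weighted mean bin number.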

In the case of RSRGKVLKTKDGKLPFCAMGVSSV [CPOX], the protein stability index is, setting by setting: under setting [1], 3.4 ± 0.2; under setting [2], 3.15 ± 0.41.

With EVLRSEAGIELIIEDDIRPEKQKR [MYBL2], the protein stability index stood at 4.21 ± 0.24 under setting [1] and 4.31 ± 0.34 under setting [2].

NQEYKMLLDIKTRLEQEIATYRSL [KRT13]: the protein stability index under setting [1] amounted to 2.58 ± 0.21 and the protein stability index under setting [2] was determined as 2.78 ± 0.19.

As for SITSKPATLTTTSATSKLIHPDED [ZNF207], the protein stability index runs as follows: under setting [1], 5.31 ± 0.26; under setting [2], 5.44 ± 0.28.

In the case of SVTRSCLLEEEEESGEEAAEAME [POP5], the protein stability index reads like this: under setting [3], 5.52 ± 0.23; under setting [4], 5.49 ± 0.12.

In turn, EANSAKVQEDLEAEFQSLFSLLEE [FSD1] returned a protein stability index under setting [1] of 5.02 ± 0.09 and a protein stability index under setting [2] of 5.05 ± 0.12.

The sequence PGEKSHWGEGLHQLREALKILAER [EMID1] registered a protein stability index under setting [2] of 2.13 ± 0.33.

On to KVQDALQNQSDSLLALAGAVQRLE [SCARA5], for which the protein stability index by setting is: under setting [1], 3.16 ± 0.24; under setting [2], 3.29 ± 0.33.

Turning to TSPHFSTRHEGSFQVPVLCAVMNV [CD69], the protein stability index worked out at 2.81 ± 0.51 under setting [1] and 2.63 ± 0.59 under setting [2].

On to FLMLINLGLGSMIGTMAGITTPII [SLC6A17], for which the protein stability index turned out to be 3.1 ± 0.31 under setting [1] and 3.03 ± 0.76 under setting [2].

As for GYFAFMLFRKRLGSMILAFRPRPN [GDAP1], the protein stability index by setting is: under setting [1], 2.69 ± 0.79; under setting [2], 2.37 ± 0.57.

In the case of YGICREPVGLVMEYMETGSLEKLL [RIPK4], the protein stability index runs as follows: under setting [1], 2.29 ± 0.26; under setting [2], 2.22 ± 0.4.

The sequence YNRGEHPIFVNSPTLDAPGGRALV [SMAD6] registered a protein stability index under setting [1] of 3.13 ± 0.35 and a protein stability index under setting [2] of 3.25 ± 0.34.

Regarding AARVGLLQYSTQVHTEFTLRNFNS [MATN2], the protein stability index is, setting by setting: under setting [1], 2.37 ± 0.19; under setting [2], 2.19 ± 0.28.

Take SSRVIAASYDKTVRAWDLETGKLL [WDR88]: the protein stability index reads like this: under setting [1], 2.76 ± 0.39; under setting [2], 3.04 ± 0.29.

In the case of LRDKIMATTIDNSRVILEIDNARL [KRT15], the protein stability index reads like this: under setting [1], 2.59 ± 0.27; under setting [2], 2.66 ± 0.2.

Turning to PLESIDHSVTGFLCEPDPVHFSEA [ALG2], the protein stability index is, setting by setting: under setting [1], 4.48 ± 0.15; under setting [2], 4.48 ± 0.025.

For the sequence DLAKLVDQQNPTLGETPENSNLEE [ZNF449], the protein stability index is, setting by setting: under setting [1], 5.47 ± 0.16; under setting [2], 5.32 ± 0.24.

For the sequence FSIPPWRYDAEVVAIAQKFAALRA [MYORG], the protein stability index is, setting by setting: under setting [1], 2.15 ± 0.3; under setting [2], 2.22 ± 0.17.

Take PLCNFNIIESFTELARIVLLRHRM [RAB40A]: the protein stability index by setting is: under setting [1], 2.6 ± 0.21; under setting [2], 2.87 ± 0.79.

As for RHCPLPQATFWGLVTPRSWSCHT [SOAT2], the protein stability index is 2.55 ± 0.64 under setting [3] and 2.44 ± 0.62 under setting [4].

Regarding PQLSPGSGTPQAGTPSPSRSRDSN [RTN2], the protein stability index is, setting by setting: under setting [1], 5.2 ± 0.14; under setting [2], 5.27 ± 0.18.

With ANKYLVEDVLLLNFEEMRALLDSL [KLHL14], the protein stability index came out at 2.34 ± 0.21 under setting [1] and 2.37 ± 0.19 under setting [2].

For the sequence FEDLNKRKDTKEIYTHFTCATDTK [GNAI1], the protein stability index reads like this: under setting [1], 4.57 ± 0.16; under setting [2], 4.41 ± 0.42.

On to VERAQQVAVQEQEIARREKELEAR [FLOT1], for which the protein stability index runs as follows: under setting [1], 5.27 ± 0.36; under setting [2], 5.3 ± 0.18.

On to LLKFDNSYSLWRSKSVYYRVYYTR [ACBD3], for which the protein stability index by setting is: under setting [1], 2.41 ± 0.55; under setting [2], 2.49 ± 0.54.

With LASAYTGRLSMAAADIVNFLTVGS [ZBTB22], the protein stability index runs as follows: under setting [1], 2.77 ± 0.28; under setting [2], 3.09 ± 0.66.

As to PKCSCGQLAAVHLSKSRTDYQPTQ [RNF180], the protein stability index came to 2.55 ± 0.17 under setting [1] and 2.63 ± 0.35 under setting [2].

Regarding IFRSYSRGAQGILLVYDITNRWSF [RAB40C], the protein stability index came out at 2.52 ± 0.7 under setting [1] and 2.61 ± 0.73 under setting [2].

For EKSIEQTQIKGLKNKPKKMGHIKP [PHTF1], the protein stability index stood at 3.93 ± 0.24 under setting [1] and 4.21 ± 0.25 under setting [2].

For NVSTKEGIHLALVELLKNLTKYPT [INTS4], the protein stability index was found to be 2.53 ± 0.36 under setting [1] and 2.5 ± 0.25 under setting [2].

Take QAQDEVEQERRLSEARLSQRDLSP [FCHSD1]: the protein stability index amounted to 5.46 ± 0.28 under setting [1] and 5.31 ± 0.24 under setting [2].

On to HSLYRRTGASFQKAQQEFAAGVFS [SCAMP3], for which the protein stability index came out at 2.81 ± 0.14 under setting [1] and 2.85 ± 0.14 under setting [2].

Take LTKLLASKSKEEVSSLISEKTNGA [FEM1C]: the protein stability index amounted to 4.07 ± 0.22 under setting [1] and 4.38 ± 0.26 under setting [2].

PGKLFIGGLNTETNEKALEAVFGK [RBMX]: the protein stability index by setting is: under setting [1], 3.54 ± 0.35; under setting [2], 3.69 ± 0.38.

Regarding VLYALRSFDYEQFHELQMQVTASD [PCDHGA10], the protein stability index reads like this: under setting [1], 2.26 ± 0.12; under setting [2], 2.22 ± 0.27.

In the case of LSKDHQEVETEGPESADTGDKSES [TOR1AIP2], the protein stability index under setting [1] stood at 5.67 ± 0.18 and the protein stability index under setting [2] is 5.59 ± 0.19.

As for ALPVPVIVSNFNYFYHRETENEEQ [KCNA4], the protein stability index reads like this: under setting [1], 3.54 ± 0.15; under setting [2], 3.57 ± 0.17.

On to PPVMPGMPPGLHHQRKYTQSFCGE [ZNF207], for which the protein stability index is, setting by setting: under setting [1], 3.76 ± 0.15; under setting [2], 3.75 ± 0.14.

As for EPGPAGPPPPPSPSSLGPLLPLQR [BTBD1], the protein stability index runs as follows: under setting [1], 4.75 ± 0.24; under setting [2], 4.76 ± 0.52.

SLLQPVTPLGTSRWRKISAALPY [NCF4]: the protein stability index came to 2.54 ± 0.27 under setting [3] and 2.24 ± 0.28 under setting [4].

Turning to IQENQRNLYEEGRTAFLWRGNVVL [TRIM43], the protein stability index reads like this: under setting [1], 2.21 ± 0.43; under setting [2], 2.61 ± 0.37.

Consider LLQRELMVPGTRHSAVLRDLRSGT [TNXB], for which the protein stability index by setting is: under setting [1], 2.43 ± 0.3; under setting [2], 2.75 ± 0.28.

Take GDAHFDEDERWTNNFREYNLHRVA [MMP1]: the protein stability index runs as follows: under setting [1], 3.84 ± 0.18; under setting [2], 4.11 ± 0.33.

With PGPHSAKQDSYEQGDSSQQSLKGH [ZC2HC1C], the protein stability index came to 5.24 ± 0.28 under setting [1] and 5.52 ± 0.082 under setting [2].

In the case of HQRIPQSVRILGSLVAILLVFLIT [SLC29A1], the protein stability index under setting [1] is 2.1 ± 0.37 and the protein stability index under setting [2] is 2.33 ± 0.25.

In the case of LNYLRDGSVPLPESTRELGELLGE [KCTD13], the protein stability index stood at 4.5 ± 0.21 under setting [1] and 4.64 ± 0.24 under setting [2].

With GEAMLANFKPRGYSECIVTVGGEE [GAN], the protein stability index under setting [1] worked out at 4.38 ± 0.42 and the protein stability index under setting [2] was 4.18 ± 0.41.

As to EEALKDEEERAQDRIATTDDTTAM [MAGEA10], the protein stability index reads like this: under setting [1], 5.7 ± 0.17; under setting [2], 5.47 ± 0.24.

With IRQEFDKLREFLRVEEQAILDAMA [TRIM35], the protein stability index is 2.91 ± 0.31 under setting [1] and 2.97 ± 0.69 under setting [2].

Consider LLLCLKVDNHFNLLTTSPVFPHYI [TRIM43], for which the protein stability index under setting [1] is 3.03 ± 0.52 and the protein stability index under setting [2] was 3.08 ± 0.64.

Turning to SRQGSAEALRALQEGLWLDRGTRV [PKD2L1], the protein stability index by setting is: under setting [1], 3.6 ± 0.37; under setting [2], 3.28 ± 0.27.

Regarding YDPKENKWTRVASMSTRRLGVAVA [KLHL20], the protein stability index reads like this: under setting [1], 2.29 ± 0.27; under setting [2], 2.38 ± 0.28.
